# Laboratory results reported in US20160009800A1 (XOMA US, published 2016).
# Residue numbers refer to the chain shown, from its start.
# B1: Ab055 (antibody, IgG2, V domains shown)
# VH: QVQLVQSGAEVKKPGSSVKVSCKASGGTFSSYAISWVRQAPGQGLEWMGGIIPIFGTANYAQKFQGRVTITADESTSTAYMELSSLRSEDTAVYYCARGQGWLRFYGMDVWGQGTTVTVSS
# VL: SYELTQLPSVSVSPGQTARITCSGDALPNKYAYWYQQKSGQAPVLVIYEDTRRPSEIPERFSASSSGTMATLTISGAQVEDEAEYYCYSTDSSGNERVFGGGTKLTVL
# notes: also called XPA.015.198
# B2: Ab051 (antibody, IgG2, V domains shown)
# VH: QVQLVQSGAEVKKPGSSVKVSCKASGGTFSSYAISWVRQAPGQGLEWMGGIIPIFGTANYAQKFQGRVTITADESTSTAYMELSSLRSEDTAVYYCAGKLYSRDYWYFDLWGRGTLVTVSS
# VL: SSELTQDPAVSVALGQTVRITCQGNSLRSFYATWYQQKPGQAPVLVIYGKNIRPSGIPDRFSGSNSGDTASLTITGTQAEDEADYYCNSRDNNRNHLLFAGGTKVTVL
# notes: also called XPA.015.194
# B3: Ab058 (antibody, IgG2, V domains shown)
# VH: QLQLQQWGAGLLKPSETLSLTCAVYSGSFSGYYYSWIRQSPGRGLEWIGDISHTGSTDYNPSLKTRVTISVDTSKNQFSLNLNSVTAADTAVYYCARDAPKGGSGLYLFDYWGQGTLVTVSS
# VL: QSVLTQPPSVSGAPGQRVTISCTGSRSNIGADHDVHWYQQIPGRAPKLLIYGNSNRPSGVPDRFSGSRSGTSASLAITGLQAEDEADYYCQSYDNSLSGSVFGGGTKLTVL
# notes: also called XPA.015.202
# B4: Ab068 (antibody, IgG2, V domains shown)
# VH: EVQLVQSGAEVKQPGSSVKVSCKASGGSFNSYTFSWVRQAPGQGLEWMGWISAYNGGTNYFANYALKFQGRVTMTTDTSTGTAYMELRSLRSDDTAVYYCARVRDSWSHEDYSYYYYMDVWGKGTTVTVSS
# VL: DVVMTQTPLSLSVTPGQPASISCKASQSLLYTNGDTYVSWYVQKPGQAPQLLFSDVSSRFFGVPDRFSASGSGTDFTLKISRVEAEDVGVYYCVQAMYLPLVFGQGTKVEIK
# notes: also called XPA.015.217
# B5: Ab076 (antibody, V domains shown)
# VH: EVQLVESGGGVVQPGGSLRLSCAASGFTFDDYAMHWVRQAPGKGLEWVSLISWDGGSTYYADSVKGRFTISRDNSKNSLYLQMNSLRAEDTALYYCAKARGVVIIDYWGQGTLVTVSS
# VL: EIVMTQSPATLSVSPGERATLSCRASQSISTNLAWYQQKPGQTPRLLIYGASTRATGIPARFSGSGSGTEFTLTISSLQSEDFAVYYCQQYNSEISFGQGTRLEIK
# notes: also called XPA.015.241
# B6: Ab084 (antibody, IgG2, V domains shown)
# VH: QVQLVESGGGLVQPGGSLRLSCAASGFTFKNYWMTWVRQAPGKGLEWVADIKGDGSRQHYADSVKGRFTISRDNARNSLFLQMNSLRVEDTALYYCATDPPWDRDAFDLWGQGTMVTVSS
# VL: AIRMTQSPSTLSASVGDRVTITCRASQSISSWLAWYQQTPGKAPKLLIYAASNLQSGVPSRFSGSGSGTDFTLTISSLQPEDFATYYCQQSYNTPLTFGGGTKVEIK
# notes: also called XPA.015.250
# B7: Ab073 (antibody, IgG2, V domains shown)
# VH: QVQLQESGPGLVKPSGTLSLTCAVSGGSISSSNWWSWVRQPPGKGLEWIGEIYHSGSTNYNPSLKSRVTISVDKSKNQFSLKLSSVTAADTAVYYCARVGAAAAWFDPWGQGTLVTVSS
# VL: QSVLTQPPSVSAAAGQKVTISCSGSSSNIGNNYVTWYQHVPGTAPKLLIFDNDKRPSGIPDRFSGSKSGTSATLAITGLQTGDEADYYCGTWDSSLNPLFGGSTQLTVL
# notes: also called XPA.015.229
# B8: Ab075 (antibody, IgG2, V domains shown)
# VH: EVQLVETGGGVVQPGRSLRLSCAASGFSFSSYDMYWVRQAPGKGLEWVAVISYDGNDKQYADSVKGRFTISRDNSKRTLYLQMDSLRTEDTATYYCTREGNGREIDYWGPGTLVTVSS
# VL: B7 VL with A14P, S103G
# notes: also called XPA.015.232
# B9: Ab074 (antibody, IgG2, V domains shown)
# VH: EVQLVQSGAEVKKPGESLKISCKGSGYSFTSYWIGWVRQMPGKGLEWMGIIYPGDSDTRYSPSFQGQVTISADKSISTAYLQWSSLKASDTAMYYCARWDAGYSPWGQGTLVTVSS
# VL: SSELTQDPAVSVALGQTVRITCQGDSLRSYYASWYQQKPGQAPVLVIYGKNNRPSGIPDRFSGSSSGNTASLTITGAQAEDEADYYCSSRDSSGDQWVFGGGTKLTVL
# notes: also called XPA.015.230
# B10: Ab072 (antibody, IgG2, V domains shown)
# VH: QMQLVQSGAEVKKPGESLKISCKGSGYSFTGYWIGWVRQMPGKGLEWMGIIYPGDSDTRYSPSFQGQVTISADKSISTAYLQWSSLKVSDTAMYYCGRISTPYAFDIWGQGTMVTVSS
# VL: SYVLTQPPSASGTPGQRVTISCSGSNSNIGSNFVTWYQQLPGAAPKLLIYTNSQRPSGVPDRFSGSRSGTSASLAISGLQSEDEADYFCAAWDDSLNGPVFGGGTQLTVL
# notes: also called XPA.015.228
# B11: Ab082 (antibody, IgG2, V domains shown)
# VH: QMQLVQSGAEVKKPGESLKISCKGSGYSFTSYWIGWVRQMPGKGLEWMGIIYPGDSDTRYSPSFQGQVTISADKSISTAYLQWSSLKASDTAMYYCARWGPDAFDIWGQGTMVTVSS
# VL: EIVLTQSPDFQSVTPKETVTISCRASQNIGVSLHWYQQKPDQSPKVLIKYASQSLSGVPSRFSGTGSGTDFTLTIKSLEAEDAATYYCLQTSSLPWTFGQGTKVEIK
# notes: also called XPA.015.248
# B12: Ab071 (antibody, IgG2, V domains shown)
# VH: B9 VH
# VL: B9 VL with I47F, D59G, S65K, S88N, D95N, Q96H
# notes: also called XPA.015.227
# Target: T1, mouse insulin receptor complexed with human insulin (mouse; human, UniProt P15208 28-1372; P01308 25-54; P01308 90-110)
# T1 construct: whole, on cells;mature; also called muINSR/hINS complex
# Assay: FACS, CHO-K1 mouse INSR cells, signal with insulin divided by signal without insulin
# Procedure: (§1) Twenty five microliter aliquots of cells were plated into 96 well plates, mixed with 25 ul of antibody or PPE and incubated on ice for 1 h.
# (§2) The cells were then washed once with FACS buffer and the binding of the antibody was detected by the addition of 25 ul of an appropriate fluorochrome-conjugated secondary antibody. […] After a final 15 min incubation on ice the cells were washed and the pellets resuspended in FACS buffer. The cells were analyzed on a FACSCAN™ (Becton-Dickinson, Milipitas, Calif.) and the data analyzed in both FLOWJO™ (Treestar, Ashland, Oreg.) and Microsoft Excel™.
row,FACS area under log transformed data MFI ratio (+insulin/-insulin),Binder
1,0.81,B1
2,0.71,B2
3,0.48,B3
4,0.55,B4

# Target: T2, human insulin receptor complexed with human insulin (human, UniProt P06213 28-1382; P01308 25-54; P01308 90-110)
# T2 construct: whole, on cells;mature; also called hINSR-hINS complex; INS/INSR complex
# Assay: FACS, serum-starved CHO-K1 cells expressing human INSR, with insulin [cont'd]
# Procedure: as §1, §2
row,FACS area under log transformed data MFI,Binder
1,543,B5
2,508,B6
3,341,B7
4,353,B8
5,260,B9

# Target: T3, mouse insulin receptor (mouse, UniProt P15208 28-1372)
# T3 construct: whole, on cells; also called muINSR; mINSR
# Assay: FACS, serum-starved CHO-K1 cells expressing mouse INSR, no insulin
row,FACS area under log transformed data MFI,Binder
1,1300,B1
2,663,B2
3,812,B3
4,803,B4

# Target: T2, human insulin receptor complexed with …
# Assay: FACS, CHO-K1 human INSR cells, signal with insulin divided by signal without insulin
# Procedure: as §1, §2
row,FACS area under log transformed data MFI ratio (+insulin/-insulin),Binder
1,0.64,B1
2,0.68,B2
3,0.26,B3
4,0.72,B4

# Target: T2, human insulin receptor complexed with …
# Assay: FACS, serum-starved CHO-K1 cells expressing human INSR, with insulin
# Procedure: as §1, §2
row,FACS area under log transformed data MFI,Binder
1,759,B1
2,378,B2
3,370,B3
4,1030,B4

# Target: T1, mouse insulin receptor complexed with …
# Assay: FACS, CHO-K1 mouse INSR cells, signal with insulin divided by signal without insulin [cont'd]
# Procedure: as §1, §2
row,FACS area under log transformed data MFI ratio (+insulin/-insulin),Binder
1,0.53,B10
2,1.04,B11
3,1.46,B5
4,1.75,B6
5,1.05,B7
6,1.05,B8
7,0.54,B9
8,0.63,B12

# Target: T3, mouse insulin receptor
# Assay: FACS, serum-starved CHO-K1 cells expressing mouse INSR, no insulin [cont'd]
# Procedure: as §1, §2
row,FACS area under log transformed data MFI,Binder
1,508,B10
2,257,B11
3,268,B5
4,196,B6
5,307,B7
6,425,B8
7,932,B9
8,818,B12

# Target: T1, mouse insulin receptor complexed with …
# Assay: FACS, serum-starved CHO-K1 cells expressing mouse INSR, with insulin
row,FACS area under log transformed data MFI,Binder
1,1050,B1
2,470,B2
3,388,B3
4,445,B4

# Target: T4, human insulin receptor (human, UniProt P06213 28-1382)
# T4 construct: whole, on cells; Uncomplexed receptor on serum-starved cells (CHOK1 transfectants or IM-9); also called hINSR; INSR
# Assay: FACS, serum-starved CHO-K1 cells expressing human INSR, no insulin [cont'd]
# Procedure: as §1, §2
row,FACS area under log transformed data MFI,Binder
1,226,B10
2,399,B11
3,552,B5
4,532,B6
5,729,B7
6,692,B8
7,596,B9
8,490,B12

# Target: T2, human insulin receptor complexed with …
# Assay: FACS, CHO-K1 human INSR cells, signal with insulin divided by signal without insulin [cont'd]
# Procedure: as §1, §2
row,FACS area under log transformed data MFI ratio (+insulin/-insulin),Binder
1,0.98,B5
2,0.95,B6
3,0.47,B7
4,0.51,B8
5,0.44,B9

# Target: T4, human insulin receptor
# Assay: FACS, serum-starved CHO-K1 cells expressing human INSR, no insulin
# Procedure: as §1, §2
row,FACS area under log transformed data MFI,Binder
1,1190,B1
2,554,B2
3,1410,B3
4,1420,B4

# Target: T1, mouse insulin receptor complexed with …
# Assay: FACS, serum-starved CHO-K1 cells expressing mouse INSR, with insulin [cont'd]
# Procedure: as §1, §2
row,FACS area under log transformed data MFI,Binder
1,267,B10
2,267,B11
3,391,B5
4,344,B6
5,321,B7
6,446,B8
7,503,B9
8,518,B12
